In patent US20190185565A1 (DEUTSCHES ZENTRUM FUR NEURODEGENERATIVE ERKRANKUNG EV, published 2019):

What was measured:
[1] = target: T1, human wild-type TREM2 (membrane bound, isoform 1) stably overexpressed on HEK293 Flp-In cells (human); experiment: immunofluorescence on live HEK293 Flp-In cells expressing human full-length TREM2 against empty-vector cells; hybridoma supernatant diluted 1:2
T1 construct: also called wt TREM2; human full-length TREM2
T1 chain: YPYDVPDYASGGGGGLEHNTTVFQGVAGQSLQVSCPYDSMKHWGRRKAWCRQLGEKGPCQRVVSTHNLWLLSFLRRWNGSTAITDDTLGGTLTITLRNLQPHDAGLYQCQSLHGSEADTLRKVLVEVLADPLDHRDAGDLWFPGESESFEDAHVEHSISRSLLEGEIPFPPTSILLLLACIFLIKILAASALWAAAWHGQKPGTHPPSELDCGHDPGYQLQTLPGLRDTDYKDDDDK
Protocol: TREM2-reactive supernatants were subsequently screened for their ability to detect TREM2 on the cell surface of HEK293 Flp-In cells stably overexpressing human wild-type TREM2 (Kleinberger et al. 2014). HEK293 Flp-In cells either expressing human full-length TREM2 or empty vector (=control) were cultured in 96-well tissue culture plates, washed twice with PBS, blocked with 2% bovine serum albumin (BSA) in PBS and incubated with the respective TREM2-reactive supernatants (diluted 1:2 in blocking buffer) for 60 minutes on ice. Cells were subsequently washed three times with PBS, fixed with 4% paraformaldehyde for 20 min on room temperature and washed three times with PBS. Binding of TREM2-reactive supernatants was visualized using isotype-specific mouse-anti rat secondary antibodies followed by incubation with a goat anti-mouse tertiary antibody coupled to Alexa-488 (Life Technologies). 4′, 6-diamidino-2-phenylindol (Dapi, Life Technologies) was used as a nuclear counterstain. Images were acquired automatically using a Cytation multi-detection reader (Biotek).

[2] = target: T1, human wild-type TREM2 (membrane bound, …); experiment: cell-based or functional assay

B1: antibody clone 8A11 (antibody, V domains shown)
VH: EVKLLESGGGLVQPGGSMRLSCAASGFTFTDFYMNWIRQPAGKAPEWLGLIRNKTKGYTTEYNTSVKGRFTISRDNTQNMLYLQMNSLRPEDTATYYCARIGVNNGGSLDYWGQGVMVTVSS
VL: DILIIQSPASLTVSAGARVTMSCKSSQSLLYSENNQDYLAWYQQKPGQFPKLLIYGASNRHTGVPDRFTGSGSGTDFTLTISSVQAEDLADYYCEQTYSYPYTFGAGTKLELK
notes: Rat monoclonal IgG from a hybridoma
- binding result [1]: binds

B2: antibody clone 7A12 (antibody, V domains shown)
VH: EVKLLESGGGLVQPGGSMRLSCAASGFTFTDFYMNWIRQPAGKAPEWLGLIRNKANGYTTQYNPSVKGRFTISRDNTQNMLYLQMNTLRGEDTATYYCARIGINNGGSLDYWGQGVMVTVSS
VL: DILINQSPASLTVSAGEKVTMSCKSSQSLLYSEKNQDYLAWYQQKPGQSPKLLMYGASYRHTGVPDRFTGSGSGTDFTLTISSVQAEDLADYYCEQTYSYPYTFGAGTKLELK
notes: as for B1
- binding result [1]: binds

B3: antibody clone 21A3 (antibody, V domains shown)
VH: EVKLLESGGGLVQPGGSMRLSCAASGFTFTDFYMNWIRQPAGKAPEWLGLIRNKANGYTTQYNPSVKGRFTISRDNTQNMLYLQMNTLRGEDTATYYCARIGINNGGSLDYWGQGVMVTVSS
VL: DILINQSPASLTVSAGEKVTMSCKSSQSLLYSEKNQDYLAWYQQKPGQSPKLLMYGASYRHTGVPDRFTGSGSGTDFTLTISSVQAEDLADYYCEQTYSYPYTFGAGTKLELK
notes: as for B1
- binding result [1]: binds

B4: antibody clone 1G6 (antibody, V domains shown)
VH: EVKLLESGGGLVQPGGSLRLSCVASGFTFTDFYMNWIRQPAGKAPEWLGLIRNKANGFTTEYNPSVKGRFTISRDNTQHMLYLQMNTLRAEDTATYYCARIGINNGGSLDYWGQGVMVTVSS
VL: DILINQSPASLTVSTGEKVTMSCKSSQSLLYSENKQDYLAWYQQKPGQFPKLLIYGASNRHTGVPDRFTGSGSGTDFTLTINIVQAEDLADYYCEQTYSYPYTFGAGTKLELK
notes: as for B1
- binding result [1]: binds

B5: antibody clone 10C3 (antibody, V domains shown)
VH: EVKLLESGGGLVQPGGSMRLSCAASGFTFTDFYMNWIRQPAGETPEWLGLIRNKTKGYTTEYNPSVKGRFTISRDNTQNMLYLQMNSLRPEDTATYYCARIGTNNGGSLDYWGQGVMVTVSS
VL: DILIIQSPASLTVSAGARVTMSCKSSQSLLYSENNQDYLAWYQQKPGQFPKLLIYGASNRHTGVPDRFTGSGSGTDFTLTISSVQAEDLADYYCEQTYSYPYTFGAGTKLELK
notes: as for B1
- binding result [1]: binds

B6: antibody clone 15C5 (antibody, V domains shown)
VH: EVKLLESGGGLVQPGGSMRLSCAASGFTFTDFYMNWIRQPAGKAPEWLGLIRNKAYGYTTEYNPSVKGRFTISRDNTQDMLYLQMNTLRAEDTATYYCARIGINYGGSLDYWGQGVMVTVSS
VL: DILINQSPASLTVSAGEKVTVSCKSSQSLLYSESNQDYLAWYQQKPGQFPKLLIYGASYRHTGVPDRFTGSGSGTDFTLTISSVQAEDLAHYYCEQTYSYPYTFGAGTKLELK
notes: as for B1
- binding result [1]: binds

B7: antibody clone 14D8 (antibody, V domains shown)
VH: EVKLLESGGGLVQPGGSMRLSCAASGFTFTDFYMNWIRQPAGKAPEWLGLIRNKANGYTTVYNPSVKGRFTISRDNTQNMLYLQMNTLRGEDTATYYCARIGINNGGSLDYWGQGVMVTVSS
VL: DILINQSPASLTVSTGEKVTMSCRSSQSLLYSEKNQDYLAWYQQKPGQFPKLLIYGASYRHTGVPDRFTGSGSGTDFTLTISSVQAEDLADYYCEQTYSYPYTFGAGTKLELK
notes: as for B1
- binding result [1]: binds

B8: antibody clone 18F9 (antibody, V domains shown)
VH: EVKLLESGGGLVQPGGSMRLSCVVSGFTFTDFYMNWIRQAAGKAPEWLGLIRNKVNGYRTEYNPSVKGRFTISRDNIQNMLYLQMNTLRAEDTATYYCARIGINNGGSLDYWGQGVMVTVSS
VL: DILINQSPASLTVSAGEKVTMSCKSSQSLLYSENNQDYLAWYQQKPGQFPKLLIYGASNRHTGVPDRFTGSGSGTDFTLTISSVQAEDLADYYCEQTYSYPYTFGAGTKLELK
notes: as for B1
- binding result [1]: binds

B9: antibody clone 14D3 (antibody, V domains shown)
VH: EVKLLEFGGGLVQPGGSMRLSCAASGFTFTDFYMNWIRQPAGRAPEWLGLIRNKTKGYTTEYNRSVKGRFTISRDNTQNMLYLQMNSLRPEDTATYYCARIGVNNGGSLDYWGQGVMVTVSS
VL: DILIIQSPASLTVSAGARVTMSCKSSQSLLYSENNQDYLAWYQQKPGQFPKLLIYGASNRHTGVPDRFTGSGSGTDFTLTISSVQAEDLADYYCEQTYSYPYTFGAGTKLELK
- increase of mature TREM2 in the membrane fraction (quantified immunoblot, normalized to immature TREM2) [2]: ≤ 5 fold
